The target of this assay is RFP-p62 (UniProt Q13501). Put plainly: co-IP.

Substance “mHTT aa1-1212 138Q-C6R (domain or fragment)” showed a fold binding against cleavable mHTT of 2 fold.

Values taken from doi:10.1101/116178.
